Source: IntAct's records for PubMed 17399790

B1: Complement factor H (Homo sapiens), P08603-2 (parent)
chain: MRLLAKIICLMLWAICVAEDCNELPPRRNTEILTGSWSDQTYPEGTQAIYKCRPGYRSLGNVIMVCRKGEWVALNPLRKCQKRPCGHPGDTPFGTFTLTGGNVFEYGVKAVYTCNEGYQLLGEINYRECDTDGWTNDIPICEVVKCLPVTAPENGKIVSSAMEPDREYHFGQAVRFVCNSGYKIEGDEEMHCSDDGFWSKEKPKCVEISCKSPDVINGSPISQKIIYKENERFQYKCNMGYEYSERGDAVCTESGWRPLPSCEEKSCDNPYIPNGDYSPLRIKHRTGDEITYQCRNGFYPATRGNTAKCTSTGWIPAPRCTLKPCDYPDIKHGGLYHENMRRPYFPVAVGKYYSYYCDEHFETPSGSYWDHIHCTQDGWSPAVPCLRKCYFPYLENGYNQNYGRKFVQGKSIDVACHPGYALPKAQTTVTCMENGWSPTPRCIRVSFTL
partner: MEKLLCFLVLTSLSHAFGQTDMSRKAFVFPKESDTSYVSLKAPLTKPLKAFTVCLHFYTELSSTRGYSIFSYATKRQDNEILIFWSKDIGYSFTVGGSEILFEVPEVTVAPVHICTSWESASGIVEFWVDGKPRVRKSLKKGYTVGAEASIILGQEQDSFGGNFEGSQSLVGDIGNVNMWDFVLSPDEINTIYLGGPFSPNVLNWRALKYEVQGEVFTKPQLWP
B2: Complement factor H (Homo sapiens), P08603-1 (parent)
chain: MRLLAKIICLMLWAICVAEDCNELPPRRNTEILTGSWSDQTYPEGTQAIYKCRPGYRSLGNVIMVCRKGEWVALNPLRKCQKRPCGHPGDTPFGTFTLTGGNVFEYGVKAVYTCNEGYQLLGEINYRECDTDGWTNDIPICEVVKCLPVTAPENGKIVSSAMEPDREYHFGQAVRFVCNSGYKIEGDEEMHCSDDGFWSKEKPKCVEISCKSPDVINGSPISQKIIYKENERFQYKCNMGYEYSERGDAVCTESGWRPLPSCEEKSCDNPYIPNGDYSPLRIKHRTGDEITYQCRNGFYPATRGNTAKCTSTGWIPAPRCTLKPCDYPDIKHGGLYHENMRRPYFPVAVGKYYSYYCDEHFETPSGSYWDHIHCTQDGWSPAVPCLRKCYFPYLENGYNQNYGRKFVQGKSIDVACHPGYALPKAQTTVTCMENGWSPTPRCIRVKTCSKSSIDIENGFISESQYTYALKEKAKYQCKLGYVTADGETSGSITCGKDGWSAQPTCIKSCDIPVFMNARTKNDFTWFKLNDTLDYECHDGYESNTGSTTGSIVCGYNGWSDLPICYERECELPKIDVHLVPDRKKDQYKVGEVLKFSCKPGFTIVGPNSVQCYHFGLSPDLPICKEQVQSCGPPPELLNGNVKEKTKEEYGHSEVVEYYCNPRFLMKGPNKIQCVDGEWTTLPVCIVEESTCGDIPELEHGWAQLSSPPYYYGDSVEFNCSESFTMIGHRSITCIHGVWTQLPQCVAIDKLKKCKSSNLIILEEHLKNKKEFDHNSNIRYRCRGKEGWIHTVCINGRWDPEVNCSMAQIQLCPPPPQIPNSHNMTTTLNYRDGEKVSVLCQENYLIQEGEEITCKDGRWQSIPLCVEKIPCSQPPQIEHGTINSSRSSQESYAHGTKLSYTCEGGFRISEENETTCYMGKWSSPPQCEGLPCKSPPEISHGVVAHMSDSYQYGEEVTYKCFEGFGIDGPAIAKCLGEKWSHPPSCIKTDCLSLPSFENAIPMGEKKDVYKAGEQVTYTCATYYKMDGASNVTCINSRWTGRPTCRDTSCVNPPTVQNAYIVSRQMSKYPSGERVRYQCRSPYEMFGDEEVMCLNGNWTEPPQCKDSTGKCGPPPPIDNGDITSFPLSVYAPASSVEYQCQNLYQLEGNKRITCRNGQWSEPPKCLHPCVISREIMENYNIALRWTAKQKLYSRTGESVEFVCKRGYRLSSRSHTLRTTCWDGKLEYPTCAKR
partner: B1 partner

Variants of: B1
Details: with crp_human CRP

Variant | effect of a mutation on the interaction
Y402H | decreasing interaction strength

Variants of: B2
Details: with crp_human CRP

Variant | effect of a mutation on the interaction
Y402H | decreasing interaction strength
